Experimental data as given in patent publication US20130259828A1.
Where “and” joins values, the source holds several entries; their conditions need not be identical. Identical values can stand only once.

Molecular target: IL-12 receptor on mouse lineage negative bone marrow cells (mouse) (UniProt Q60837)
Assay: cell-based or functional assay

Chain of IL-12 receptor on mouse lineage negative bone marrow cells (mouse) (Q60837 20-738, chain 1 of 2): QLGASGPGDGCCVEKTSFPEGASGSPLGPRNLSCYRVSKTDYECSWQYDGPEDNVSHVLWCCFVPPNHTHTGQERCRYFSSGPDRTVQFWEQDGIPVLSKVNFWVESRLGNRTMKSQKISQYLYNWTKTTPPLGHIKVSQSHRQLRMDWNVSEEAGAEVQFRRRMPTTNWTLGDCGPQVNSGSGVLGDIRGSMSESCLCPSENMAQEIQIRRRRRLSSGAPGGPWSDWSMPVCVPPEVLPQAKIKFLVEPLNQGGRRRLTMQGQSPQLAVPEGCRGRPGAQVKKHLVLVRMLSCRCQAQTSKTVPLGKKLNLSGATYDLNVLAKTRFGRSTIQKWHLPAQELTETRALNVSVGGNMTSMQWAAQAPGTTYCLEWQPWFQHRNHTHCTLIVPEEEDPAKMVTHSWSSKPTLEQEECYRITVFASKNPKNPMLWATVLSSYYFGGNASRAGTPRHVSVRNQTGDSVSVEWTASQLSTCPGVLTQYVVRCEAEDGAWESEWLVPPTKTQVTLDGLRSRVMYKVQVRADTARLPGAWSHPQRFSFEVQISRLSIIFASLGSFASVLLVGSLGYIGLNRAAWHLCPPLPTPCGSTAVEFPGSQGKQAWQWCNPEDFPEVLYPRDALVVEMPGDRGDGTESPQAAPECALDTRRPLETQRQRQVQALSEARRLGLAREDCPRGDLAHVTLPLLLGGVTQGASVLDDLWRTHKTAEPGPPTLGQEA
Chain of IL-12 receptor on mouse lineage negative bone marrow cells (mouse) (P97378 24-874, chain 2 of 2, further chain): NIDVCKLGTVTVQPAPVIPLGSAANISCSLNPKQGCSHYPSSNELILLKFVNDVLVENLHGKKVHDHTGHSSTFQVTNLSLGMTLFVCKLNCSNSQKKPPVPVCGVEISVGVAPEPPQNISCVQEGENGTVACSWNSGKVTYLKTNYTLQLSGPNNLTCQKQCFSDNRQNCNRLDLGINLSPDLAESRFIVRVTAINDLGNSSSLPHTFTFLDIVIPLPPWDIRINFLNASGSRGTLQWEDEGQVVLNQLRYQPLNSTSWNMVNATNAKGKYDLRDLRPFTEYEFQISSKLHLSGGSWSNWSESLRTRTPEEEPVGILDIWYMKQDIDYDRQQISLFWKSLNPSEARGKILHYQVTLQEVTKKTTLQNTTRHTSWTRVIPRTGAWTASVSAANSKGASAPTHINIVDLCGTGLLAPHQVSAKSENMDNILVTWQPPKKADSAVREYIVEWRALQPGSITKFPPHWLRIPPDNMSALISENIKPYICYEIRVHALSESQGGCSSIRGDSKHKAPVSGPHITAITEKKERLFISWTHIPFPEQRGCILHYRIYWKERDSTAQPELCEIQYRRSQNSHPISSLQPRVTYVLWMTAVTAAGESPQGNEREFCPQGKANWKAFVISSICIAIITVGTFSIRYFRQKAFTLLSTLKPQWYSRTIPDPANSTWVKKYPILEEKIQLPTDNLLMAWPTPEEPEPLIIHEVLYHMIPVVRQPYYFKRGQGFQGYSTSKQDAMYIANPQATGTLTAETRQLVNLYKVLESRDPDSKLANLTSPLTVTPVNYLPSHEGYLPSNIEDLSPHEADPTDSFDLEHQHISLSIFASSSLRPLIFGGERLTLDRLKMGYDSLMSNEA

Fold-Increase in Lin- IL-12R+ cells (FACS of bone marrow after in vivo IL-12, 100 ng/mouse): 5.4 fold and 3.5 fold
Substance: exogenous IL-12 (IL-12 ligand) injected into C57BL/6 mice in Example 7
